Data reported in paper PMC11606652.

Biological target: Kluyveromyces marxianus GCN2 histidyl-tRNA synthetase-like (HRSL) domain, residues 996-1,511 (Kluyveromyces marxianus)
Assay: SEC

stoichiometry N: 2
Substance: Kluyveromyces marxianus GCN2 histidyl-tRNA synthetase-like (HRSL) domain, residues 996-1,511 (domain or fragment)
